Data on six molecules can be found in US20250171562A1 (ALK ABELL, published 2025).

The term EC50 denotes the concentration giving half of the maximal effect.

Bounds are passed on as bounds.

The labels stand for the following.
B1: NIgG4B1A2(G4S)2 (Fc fusion)
chain 1: QVQLQESGGGLVQTGGSLRLSCAVHGRTFSNTGMGWFRQAPGNERQFVAIISPSGTSTYYADSVKGRFTISRDPAKNTVYLQMNSLKMDDTAVYYCAASYGSNWSTLRHQRRNEYDAWGQGTQVAVSGGGGSGGGGSGPPCPPCPAPEFLGGPSVFLFPPKPKDTLMISRTPEVTCVVVDVSQEDPEVQFNWYVDGVEVHNAKTKPREEQFNSTYRVVSVLTVLHQDWLNGKEYKCKVSNKGLPSSIEKTISKAKGQPREPQVYTLPPCQEEMTKNQVSLWCLVKGFYPSDIAVEWESNGQPENNYKTTPPVLDSDGSFFLYSRLTVDKSRWQEGNVFSCSVMHEALHNHYTQKSLSLSLGK
chain 2: EVQLLESGGGLVQPGGSLRLSCAASGFRFGNYDMAWVRQAPGKRYEWVSSIDTGGDITHYADSVKGRFTISRDNAKNTLYLQMNSLRPEDTAEYWCATDEEYALGPNEFDYYGQGTLVTVSGGGGSGGGGSGPPCPPCPAPEFLGGPSVFLFPPKPKDTLMISRTPEVTCVVVDVSQEDPEVQFNWYVDGVEVHNAKTKPREEQFNSTYRVVSVLTVLHQDWLNGKEYKCKVSNKGLPSSIEKTISKAKGQPREPQVCTLPPSQEEMTKNQVSLSCAVKGFYPSDIAVEWESNGQPENNYKTTPPVLDSDGSFFLVSRLTVDKSRWQEGNVFSCSVMHEALHNHYTQKSLSLSLGK
B2: CIgG4B1A2(G4S)1 (Fc fusion)
chain 1: GPPCPPCPAPEFLGGPSVFLFPPKPKDTLMISRTPEVTCVVVDVSQEDPEVQFNWYVDGVEVHNAKTKPREEQFNSTYRVVSVLTVLHQDWLNGKEYKCKVSNKGLPSSIEKTISKAKGQPREPQVYTLPPCQEEMTKNQVSLWCLVKGFYPSDIAVEWESNGQPENNYKTTPPVLDSDGSFFLYSRLTVDKSRWQEGNVFSCSVMHEALHNHYTQKSLSLSLGKGGGGSQVQLQESGGGLVQTGGSLRLSCAVHGRTFSNTGMGWFRQAPGNERQFVAIISPSGTSTYYADSVKGRFTISRDPAKNTVYLQMNSLKMDDTAVYYCAASYGSNWSTLRHQRRNEYDAWGQGTQVAVS
chain 2: GPPCPPCPAPEFLGGPSVFLFPPKPKDTLMISRTPEVTCVVVDVSQEDPEVQFNWYVDGVEVHNAKTKPREEQFNSTYRVVSVLTVLHQDWLNGKEYKCKVSNKGLPSSIEKTISKAKGQPREPQVCTLPPSQEEMTKNQVSLSCAVKGFYPSDIAVEWESNGQPENNYKTTPPVLDSDGSFFLVSRLTVDKSRWQEGNVFSCSVMHEALHNHYTQKSLSLSLGKGGGGSEVQLLESGGGLVQPGGSLRLSCAASGFRFGNYDMAWVRQAPGKRYEWVSSIDTGGDITHYADSVKGRFTISRDNAKNTLYLQMNSLRPEDTAEYWCATDEEYALGPNEFDYYGQGTLVTVS
B3: NIgG4B1A2(G4S)3 (Fc fusion)
chain 1: QVQLQESGGGLVQTGGSLRLSCAVHGRTFSNTGMGWFRQAPGNERQFVAIISPSGTSTYYADSVKGRFTISRDPAKNTVYLQMNSLKMDDTAVYYCAASYGSNWSTLRHQRRNEYDAWGQGTQVAVSGGGGSGGGGSGGGGSGPPCPPCPAPEFLGGPSVFLFPPKPKDTLMISRTPEVTCVVVDVSQEDPEVQFNWYVDGVEVHNAKTKPREEQFNSTYRVVSVLTVLHQDWLNGKEYKCKVSNKGLPSSIEKTISKAKGQPREPQVYTLPPCQEEMTKNQVSLWCLVKGFYPSDIAVEWESNGQPENNYKTTPPVLDSDGSFFLYSRLTVDKSRWQEGNVFSCSVMHEALHNHYTQKSLSLSLGK
chain 2: EVQLLESGGGLVQPGGSLRLSCAASGFRFGNYDMAWVRQAPGKRYEWVSSIDTGGDITHYADSVKGRFTISRDNAKNTLYLQMNSLRPEDTAEYWCATDEEYALGPNEFDYYGQGTLVTVSGGGGSGGGGSGGGGSGPPCPPCPAPEFLGGPSVFLFPPKPKDTLMISRTPEVTCVVVDVSQEDPEVQFNWYVDGVEVHNAKTKPREEQFNSTYRVVSVLTVLHQDWLNGKEYKCKVSNKGLPSSIEKTISKAKGQPREPQVCTLPPSQEEMTKNQVSLSCAVKGFYPSDIAVEWESNGQPENNYKTTPPVLDSDGSFFLVSRLTVDKSRWQEGNVFSCSVMHEALHNHYTQKSLSLSLGK
B4: NIgG4B1A2(G4S)1 (Fc fusion)
chain 1: QVQLQESGGGLVQTGGSLRLSCAVHGRTFSNTGMGWFRQAPGNERQFVAIISPSGTSTYYADSVKGRFTISRDPAKNTVYLQMNSLKMDDTAVYYCAASYGSNWSTLRHQRRNEYDAWGQGTQVAVSGGGGSGPPCPPCPAPEFLGGPSVFLFPPKPKDTLMISRTPEVTCVVVDVSQEDPEVQFNWYVDGVEVHNAKTKPREEQFNSTYRVVSVLTVLHQDWLNGKEYKCKVSNKGLPSSIEKTISKAKGQPREPQVYTLPPCQEEMTKNQVSLWCLVKGFYPSDIAVEWESNGQPENNYKTTPPVLDSDGSFFLYSRLTVDKSRWQEGNVFSCSVMHEALHNHYTQKSLSLSLGK
chain 2: EVQLLESGGGLVQPGGSLRLSCAASGFRFGNYDMAWVRQAPGKRYEWVSSIDTGGDITHYADSVKGRFTISRDNAKNTLYLQMNSLRPEDTAEYWCATDEEYALGPNEFDYYGQGTLVTVSGGGGSGPPCPPCPAPEFLGGPSVFLFPPKPKDTLMISRTPEVTCVVVDVSQEDPEVQFNWYVDGVEVHNAKTKPREEQFNSTYRVVSVLTVLHQDWLNGKEYKCKVSNKGLPSSIEKTISKAKGQPREPQVCTLPPSQEEMTKNQVSLSCAVKGFYPSDIAVEWESNGQPENNYKTTPPVLDSDGSFFLVSRLTVDKSRWQEGNVFSCSVMHEALHNHYTQKSLSLSLGK
B5: CIgG4B1A2(RS) (Fc fusion)
chain 1: GPPCPPCPAPEFLGGPSVFLFPPKPKDTLMISRTPEVTCVVVDVSQEDPEVQFNWYVDGVEVHNAKTKPREEQFNSTYRVVSVLTVLHQDWLNGKEYKCKVSNKGLPSSIEKTISKAKGQPREPQVYTLPPCQEEMTKNQVSLWCLVKGFYPSDIAVEWESNGQPENNYKTTPPVLDSDGSFFLYSRLTVDKSRWQEGNVFSCSVMHEALHNHYTQKSLSLSLGKRSQVQLQESGGGLVQTGGSLRLSCAVHGRTFSNTGMGWFRQAPGNERQFVAIISPSGTSTYYADSVKGRFTISRDPAKNTVYLQMNSLKMDDTAVYYCAASYGSNWSTLRHQRRNEYDAWGQGTQVAVS
chain 2: GPPCPPCPAPEFLGGPSVFLFPPKPKDTLMISRTPEVTCVVVDVSQEDPEVQFNWYVDGVEVHNAKTKPREEQFNSTYRVVSVLTVLHQDWLNGKEYKCKVSNKGLPSSIEKTISKAKGQPREPQVCTLPPSQEEMTKNQVSLSCAVKGFYPSDIAVEWESNGQPENNYKTTPPVLDSDGSFFLVSRLTVDKSRWQEGNVFSCSVMHEALHNHYTQKSLSLSLGKRSEVQLLESGGGLVQPGGSLRLSCAASGFRFGNYDMAWVRQAPGKRYEWVSSIDTGGDITHYADSVKGRFTISRDNAKNTLYLQMNSLRPEDTAEYWCATDEEYALGPNEFDYYGQGTLVTVS
B6: NIgG4B1A2(RS) (Fc fusion)
chain 1: QVQLQESGGGLVQTGGSLRLSCAVHGRTFSNTGMGWFRQAPGNERQFVAIISPSGTSTYYADSVKGRFTISRDPAKNTVYLQMNSLKMDDTAVYYCAASYGSNWSTLRHQRRNEYDAWGQGTQVAVSRSGPPCPPCPAPEFLGGPSVFLFPPKPKDTLMISRTPEVTCVVVDVSQEDPEVQFNWYVDGVEVHNAKTKPREEQFNSTYRVVSVLTVLHQDWLNGKEYKCKVSNKGLPSSIEKTISKAKGQPREPQVYTLPPCQEEMTKNQVSLWCLVKGFYPSDIAVEWESNGQPENNYKTTPPVLDSDGSFFLYSRLTVDKSRWQEGNVFSCSVMHEALHNHYTQKSLSLSLGK
chain 2: EVQLLESGGGLVQPGGSLRLSCAASGFRFGNYDMAWVRQAPGKRYEWVSSIDTGGDITHYADSVKGRFTISRDNAKNTLYLQMNSLRPEDTAEYWCATDEEYALGPNEFDYYGQGTLVTVSRSGPPCPPCPAPEFLGGPSVFLFPPKPKDTLMISRTPEVTCVVVDVSQEDPEVQFNWYVDGVEVHNAKTKPREEQFNSTYRVVSVLTVLHQDWLNGKEYKCKVSNKGLPSSIEKTISKAKGQPREPQVCTLPPSQEEMTKNQVSLSCAVKGFYPSDIAVEWESNGQPENNYKTTPPVLDSDGSFFLVSRLTVDKSRWQEGNVFSCSVMHEALHNHYTQKSLSLSLGK

The target of the test is T1, recombinant human IgE (human, UniProt P01854-1 1-428).
T1 construct: made in-house (ALK); preloaded on immobilised FcεRIα in the displacement ELISA
T1 sequence (P01854 other isoform, or with tags, fused parts or gaps): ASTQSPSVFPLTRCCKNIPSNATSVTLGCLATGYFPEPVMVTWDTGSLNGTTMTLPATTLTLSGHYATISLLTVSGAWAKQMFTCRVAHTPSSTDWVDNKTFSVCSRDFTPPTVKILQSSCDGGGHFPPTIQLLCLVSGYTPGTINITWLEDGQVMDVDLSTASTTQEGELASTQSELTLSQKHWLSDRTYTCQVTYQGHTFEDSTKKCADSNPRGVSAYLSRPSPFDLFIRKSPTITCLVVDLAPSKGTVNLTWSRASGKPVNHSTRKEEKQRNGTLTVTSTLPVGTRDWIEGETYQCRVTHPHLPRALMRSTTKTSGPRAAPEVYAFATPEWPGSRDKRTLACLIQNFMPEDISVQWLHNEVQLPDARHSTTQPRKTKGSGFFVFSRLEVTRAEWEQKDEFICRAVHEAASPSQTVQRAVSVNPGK
In words: IgE-FcεRIα displacement ELISA. The method in brief:
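Streptavidin-coated plates carried site-specifically biotinylated recombinant human FcεRIα, loaded with recombinant human IgE at 13 ng/ml. sdAbs in a pM–μM series were added for 1 h, and displaced IgE was washed off. Percent displacement was the signal reduction versus the no-sdAb control, giving EC50 and maximal effect.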
Turning to B1, the Max effect was above 95%. For B2, the EC50 was found to be 3 nM and the Max effect is above 95%. B3: the Max effect was above 95%. Same read-out and setting: as for B4, the figure is above 95%. Turning to B5, the EC50 stood at 5 nM and the Max effect is above 95%. Regarding B6, the Max effect is above 95%.
